# Results published in paper PMC2697666 (Journal of molecular biology, 2009).
# Biological target: human factor Xa (human)
# Sequence (P00742 41-488): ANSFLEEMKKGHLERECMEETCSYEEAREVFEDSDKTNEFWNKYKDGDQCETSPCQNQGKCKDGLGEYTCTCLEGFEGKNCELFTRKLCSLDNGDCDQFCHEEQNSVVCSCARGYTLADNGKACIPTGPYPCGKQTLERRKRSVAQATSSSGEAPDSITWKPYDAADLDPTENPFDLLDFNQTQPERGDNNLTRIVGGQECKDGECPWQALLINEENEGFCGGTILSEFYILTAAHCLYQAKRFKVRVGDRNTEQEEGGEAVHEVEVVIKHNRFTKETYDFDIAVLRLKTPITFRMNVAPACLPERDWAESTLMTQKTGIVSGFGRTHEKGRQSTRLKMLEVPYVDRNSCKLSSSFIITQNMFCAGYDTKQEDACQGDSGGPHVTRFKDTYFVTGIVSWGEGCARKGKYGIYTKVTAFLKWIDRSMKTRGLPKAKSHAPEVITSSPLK
row,Substance,"second-order rate constant of factor Xa inhibition (kapp), with pentasaccharide [M⁻¹ s⁻¹]"
1,S137A/S380C antithrombin (from UniProt P01008 33-464) (natural protein),194000
2,S137A/V375C antithrombin (from UniProt P01008 33-464) (natural protein),664000
3,S137A/V375C/S380C antithrombin (from UniProt P01008 33-464) (natural protein),331
4,recombinant beta-glycoform S137A antithrombin (from UniProt P01008 33-464) (natural protein),756000
